The target of the test is T1, eIF4E (Mus musculus, UniProt P63073).
T1 construct: made in house; host or cells: E. coli BL21DE3 (Novagen), pGEX-4T-1 vector
In words: Test for interaction of YFP-fused peptide sequences with eIF4E (GST-eIF4E beads, affinity chromatography). The conditions noted are these: 35S Met-labeled YFP fusion produced in rabbit reticulocyte lysate; SDS-PAGE, autoradiography; FIG. 1. It counts as binding. An excerpt: The eIF4E protein fused to glutathione-S-transferase (GST-eIF4E) or GST alone (GST), used as a control, are produced in bacteria, purified and immobilized on glutathione beads. The YFP, YFP-A1 WT and YFP-A1 YALA proteins were produced in rabbit reticulocyte lysate in the presence of 35S methionine and chromatographed on the GST-eIF4 or GST beads. The proteins retained on the beads are eluted and analyzed by SDS-PAGE followed by autoradiography.
The plasmids encoding the YFP protein-peptides were obtained by amplification of the reading frame of the YFP protein (enhanced yellow-green variant of the Aequorea victoria green fluorescent protein) from the pEYFP-C1 plasmid (Clontech). The 5′ primer used (sequence described below) made it possible to insert a T7 promoter (underlined sequence) upstream of the reading frame of YFP. […] The pGEX 4E plasmid was obtained by inserting the reading frame of the mouse eIF4E protein at the BamHI/EcoRI sites of the PGEX-4T-1 vector (Amersham pharmacia biotech). […] After washing, the proteins were eluted with SDS loading buffer, and analyzed, after an SDS-PAGE gel, by autoradiography (Typhoon Phospholmager, Amersham Pharmacia Biotech).
Biochemical validation of the peptides identified was then carried out by means of affinity chromatography approaches. […] The ability of these peptides to interact with eIF4E was then analyzed by affinity chromatography. […]

The values that follow come from patent US9745357B2, “Peptides used for treating cancers and, in particular, chronic lymphoid leukaemia” (Centre National de la Recherche Scientifique, priority 2009, dated 2017).

Entries after “also recorded” stand apart in the source; their conditions may differ. No end group written: not given here.

T1 sequence (P63073 whole entry): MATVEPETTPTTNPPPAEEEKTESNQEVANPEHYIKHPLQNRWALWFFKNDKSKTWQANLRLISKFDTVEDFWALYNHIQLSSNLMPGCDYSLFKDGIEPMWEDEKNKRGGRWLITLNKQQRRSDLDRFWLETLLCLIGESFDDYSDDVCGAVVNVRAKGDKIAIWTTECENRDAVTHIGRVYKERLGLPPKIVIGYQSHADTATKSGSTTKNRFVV

As for “YFP-A1 WT: YFP, yellow fluorescent protein, fused to a peptide derived from the human Angel 1 protein, of sequence RRKYGRDFLLRF (SEQ ID No. 3) (also: fused to YFP)”, the “interaction with eIF4E (retention on GST-eIF4E beads)” value is listed as “associates more strongly with eIF4E than the other peptides tested; also recorded: is retained on GST-eIF4E beads”.
